The results in this text go back to patent US20200079833A1 (AstraZeneca / MedImmune, published 2020).

Starred links: 1 amine or outer side, 2 acyl side, 3 side chain; linkers in the order of their positions; H or OH if unused. Non-standard residues stand in square brackets, D forms with d. Groups on a side chain read outwards from the residue. Primed or numbered codes have the meaning given here. No end group written: not given here. *: point of attachment. γGlu = O=C(O)[C@H](CCC(=O)[*:2])N[*:1]; Stearoyl = CCCCCCCCCCCCCCCCCC(=O)*; Palmitoyl = CCCCCCCCCCCCCCCC(=O)*; αMeF = C[C@](N)(Cc1ccccc1)C(=O)O; αMeK = C[C@](N)(CCCCN)C(=O)O; αMeS = C[C@](N)(CO)C(=O)O; PEG2′ = not defined here; Aib = CC(C)(N)C(=O)O

B1: SEQ ID NO 71 (peptide)
peptide: H[Aib]EGS[αMeF]TSDV[αMeS]S[αMeF]LEGEAA[αMeK]E[αMeF]IA[αMeF]VV[αMeK]K([γGlu-Palmitoyl])G-NH2
modifications: N-terminus assumed
SMILES: CCCCCCCCCCCCCCCC(=O)N[C@@H](CCC(=O)NCCCC[C@H](NC(=O)[C@](C)(CCCCN)NC(=O)[C@@H](NC(=O)[C@@H](NC(=O)[C@](C)(Cc1ccccc1)NC(=O)[C@H](C)NC(=O)[C@@H](NC(=O)[C@](C)(Cc1ccccc1)NC(=O)[C@H](CCC(=O)O)NC(=O)[C@](C)(CCCCN)NC(=O)[C@H](C)NC(=O)[C@H](C)NC(=O)[C@H](CCC(=O)O)NC(=O)CNC(=O)[C@H](CCC(=O)O)NC(=O)[C@H](CC(C)C)NC(=O)[C@](C)(Cc1ccccc1)NC(=O)[C@H](CO)NC(=O)[C@](C)(CO)NC(=O)[C@@H](NC(=O)[C@H](CC(=O)O)NC(=O)[C@H](CO)NC(=O)[C@@H](NC(=O)[C@](C)(Cc1ccccc1)NC(=O)[C@H](CO)NC(=O)CNC(=O)[C@H](CCC(=O)O)NC(=O)C(C)(C)NC(=O)[C@@H](N)Cc1c[nH]cn1)[C@@H](C)O)C(C)C)[C@@H](C)CC)C(C)C)C(C)C)C(=O)NCC(N)=O)C(=O)O
B2: SEQ ID NO 69 (peptide)
peptide: H[Aib]EGS[αMeF]TSDV[αMeS]S[αMeF]LEGEAAAEFIK([PEG2′-PEG2′-γGlu-Stearoyl])WVVEGG-NH2
B3: SEQ ID NO 75 (peptide)
peptide: H[Aib]EGS[αMeF]TSDV[αMeS]S[αMeF]LEGEAA[αMeK]E[αMeF]IAK([γGlu-Palmitoyl])VV[αMeK]GG-NH2
modifications: N-terminus assumed
SMILES: CCCCCCCCCCCCCCCC(=O)N[C@@H](CCC(=O)NCCCC[C@H](NC(=O)[C@H](C)NC(=O)[C@@H](NC(=O)[C@](C)(Cc1ccccc1)NC(=O)[C@H](CCC(=O)O)NC(=O)[C@](C)(CCCCN)NC(=O)[C@H](C)NC(=O)[C@H](C)NC(=O)[C@H](CCC(=O)O)NC(=O)CNC(=O)[C@H](CCC(=O)O)NC(=O)[C@H](CC(C)C)NC(=O)[C@](C)(Cc1ccccc1)NC(=O)[C@H](CO)NC(=O)[C@](C)(CO)NC(=O)[C@@H](NC(=O)[C@H](CC(=O)O)NC(=O)[C@H](CO)NC(=O)[C@@H](NC(=O)[C@](C)(Cc1ccccc1)NC(=O)[C@H](CO)NC(=O)CNC(=O)[C@H](CCC(=O)O)NC(=O)C(C)(C)NC(=O)[C@@H](N)Cc1c[nH]cn1)[C@@H](C)O)C(C)C)[C@@H](C)CC)C(=O)N[C@H](C(=O)N[C@H](C(=O)N[C@@](C)(CCCCN)C(=O)NCC(=O)NCC(N)=O)C(C)C)C(C)C)C(=O)O
B4: SEQ ID NO 76 (peptide)
peptide: H[Aib]EGS[αMeF]TSDV[αMeS]S[αMeF]LEGEAA[αMeK]E[αMeF]IK([γGlu-Palmitoyl])[αMeF]VV[αMeK]GG-NH2
modifications: N-terminus assumed
SMILES: CCCCCCCCCCCCCCCC(=O)N[C@@H](CCC(=O)NCCCC[C@H](NC(=O)[C@@H](NC(=O)[C@](C)(Cc1ccccc1)NC(=O)[C@H](CCC(=O)O)NC(=O)[C@](C)(CCCCN)NC(=O)[C@H](C)NC(=O)[C@H](C)NC(=O)[C@H](CCC(=O)O)NC(=O)CNC(=O)[C@H](CCC(=O)O)NC(=O)[C@H](CC(C)C)NC(=O)[C@](C)(Cc1ccccc1)NC(=O)[C@H](CO)NC(=O)[C@](C)(CO)NC(=O)[C@@H](NC(=O)[C@H](CC(=O)O)NC(=O)[C@H](CO)NC(=O)[C@@H](NC(=O)[C@](C)(Cc1ccccc1)NC(=O)[C@H](CO)NC(=O)CNC(=O)[C@H](CCC(=O)O)NC(=O)C(C)(C)NC(=O)[C@@H](N)Cc1c[nH]cn1)[C@@H](C)O)C(C)C)[C@@H](C)CC)C(=O)N[C@@](C)(Cc1ccccc1)C(=O)N[C@H](C(=O)N[C@H](C(=O)N[C@@](C)(CCCCN)C(=O)NCC(=O)NCC(N)=O)C(C)C)C(C)C)C(=O)O
B5: SEQ ID NO 72 (peptide)
peptide: H[Aib]EGS[αMeF]TSDV[αMeS]S[αMeF]LEGEAA[αMeK]E[αMeF]IA[αMeF]VVK([γGlu-Palmitoyl])GG-NH2
modifications: N-terminus assumed
SMILES: CCCCCCCCCCCCCCCC(=O)N[C@@H](CCC(=O)NCCCC[C@H](NC(=O)[C@@H](NC(=O)[C@@H](NC(=O)[C@](C)(Cc1ccccc1)NC(=O)[C@H](C)NC(=O)[C@@H](NC(=O)[C@](C)(Cc1ccccc1)NC(=O)[C@H](CCC(=O)O)NC(=O)[C@](C)(CCCCN)NC(=O)[C@H](C)NC(=O)[C@H](C)NC(=O)[C@H](CCC(=O)O)NC(=O)CNC(=O)[C@H](CCC(=O)O)NC(=O)[C@H](CC(C)C)NC(=O)[C@](C)(Cc1ccccc1)NC(=O)[C@H](CO)NC(=O)[C@](C)(CO)NC(=O)[C@@H](NC(=O)[C@H](CC(=O)O)NC(=O)[C@H](CO)NC(=O)[C@@H](NC(=O)[C@](C)(Cc1ccccc1)NC(=O)[C@H](CO)NC(=O)CNC(=O)[C@H](CCC(=O)O)NC(=O)C(C)(C)NC(=O)[C@@H](N)Cc1c[nH]cn1)[C@@H](C)O)C(C)C)[C@@H](C)CC)C(C)C)C(C)C)C(=O)NCC(=O)NCC(N)=O)C(=O)O
B6: SEQ ID NO 74 (peptide)
peptide: H[Aib]EGS[αMeF]TSDV[αMeS]S[αMeF]LEGEAA[αMeK]E[αMeF]IA[αMeF]K([γGlu-Palmitoyl])V[αMeK]GG-NH2
modifications: N-terminus assumed
SMILES: CCCCCCCCCCCCCCCC(=O)N[C@@H](CCC(=O)NCCCC[C@H](NC(=O)[C@](C)(Cc1ccccc1)NC(=O)[C@H](C)NC(=O)[C@@H](NC(=O)[C@](C)(Cc1ccccc1)NC(=O)[C@H](CCC(=O)O)NC(=O)[C@](C)(CCCCN)NC(=O)[C@H](C)NC(=O)[C@H](C)NC(=O)[C@H](CCC(=O)O)NC(=O)CNC(=O)[C@H](CCC(=O)O)NC(=O)[C@H](CC(C)C)NC(=O)[C@](C)(Cc1ccccc1)NC(=O)[C@H](CO)NC(=O)[C@](C)(CO)NC(=O)[C@@H](NC(=O)[C@H](CC(=O)O)NC(=O)[C@H](CO)NC(=O)[C@@H](NC(=O)[C@](C)(Cc1ccccc1)NC(=O)[C@H](CO)NC(=O)CNC(=O)[C@H](CCC(=O)O)NC(=O)C(C)(C)NC(=O)[C@@H](N)Cc1c[nH]cn1)[C@@H](C)O)C(C)C)[C@@H](C)CC)C(=O)N[C@H](C(=O)N[C@@](C)(CCCCN)C(=O)NCC(=O)NCC(N)=O)C(C)C)C(=O)O

The target of this experiment is T1, GLP-1R (INS1e assay) (UniProt P32301 22-463, limits assumed).
T1 sequence (looked up): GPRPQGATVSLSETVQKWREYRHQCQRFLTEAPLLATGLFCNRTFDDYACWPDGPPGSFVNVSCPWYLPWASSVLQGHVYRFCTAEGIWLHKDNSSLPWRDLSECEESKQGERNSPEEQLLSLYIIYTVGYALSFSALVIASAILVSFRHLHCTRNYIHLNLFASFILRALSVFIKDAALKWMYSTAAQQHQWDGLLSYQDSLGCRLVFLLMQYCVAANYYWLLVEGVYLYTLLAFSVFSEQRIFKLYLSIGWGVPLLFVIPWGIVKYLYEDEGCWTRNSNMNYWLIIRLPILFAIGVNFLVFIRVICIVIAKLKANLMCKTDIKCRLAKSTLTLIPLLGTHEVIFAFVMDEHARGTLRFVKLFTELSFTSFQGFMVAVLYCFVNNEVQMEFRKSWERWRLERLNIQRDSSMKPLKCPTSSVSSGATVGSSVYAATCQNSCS
Description: cell-based or functional assay.
On to B1, for which the “INS1e assay EC50 GLP-1 R n1” value stood at 0.604 nM, the “INS1e assay EC50 GLP-1 R n2” value turned out to be 0.841 nM and the “INS1e assay EC50 Mean pM GLP-1R” value is 723 pM.

Regarding B2, the “INS1e assay EC50 GLP-1 R n1” value came to 19.2 nM, the “INS1e assay EC50 GLP-1 R n2” value turned out to be 25 nM and the “INS1e assay EC50 Mean pM GLP-1R” value came out at 22100 pM.

For the molecule B3, the “INS1e assay EC50 GLP-1 R n1” value was 0.0497 nM, the “INS1e assay EC50 GLP-1 R n2” value amounted to 0.063 nM and the “INS1e assay EC50 Mean pM GLP-1R” value was found to be 56 pM.

Consider B4, for which the “INS1e assay EC50 GLP-1 R n1” value came out at 0.326 nM, the “INS1e assay EC50 GLP-1 R n2” value amounted to 0.531 nM and the “INS1e assay EC50 Mean pM GLP-1R” value was 429 pM.

As for B5, the “INS1e assay EC50 GLP-1 R n1” value was found to be 4.26 nM, the “INS1e assay EC50 GLP-1 R n2” value was 8.07 nM and the “INS1e assay EC50 Mean pM GLP-1R” value stood at 6160 pM.

Consider B6, for which the “INS1e assay EC50 GLP-1 R n1” value is 0.0774 nM, the “INS1e assay EC50 GLP-1 R n2” value was 0.127 nM and the “INS1e assay EC50 Mean pM GLP-1R” value amounted to 102 pM.
